Source: ChEMBL document CHEMBL3600307, “Synthesis, kinetic mechanism and docking studies of vanillin derivatives as inhibitors of mushroom tyrosinase” (Bioorg Med Chem, 2015)
Blank lines part the entries; values can stand above or below the molecule they belong to. Activity calls are given as the source filed them. The rule behind the calls is not given here.

Key:
Tyrosinase [1] = molecular target: T1, Tyrosinase (Agaricus bisporus, UniProt O42713)
T1 sequence (O42713 whole entry): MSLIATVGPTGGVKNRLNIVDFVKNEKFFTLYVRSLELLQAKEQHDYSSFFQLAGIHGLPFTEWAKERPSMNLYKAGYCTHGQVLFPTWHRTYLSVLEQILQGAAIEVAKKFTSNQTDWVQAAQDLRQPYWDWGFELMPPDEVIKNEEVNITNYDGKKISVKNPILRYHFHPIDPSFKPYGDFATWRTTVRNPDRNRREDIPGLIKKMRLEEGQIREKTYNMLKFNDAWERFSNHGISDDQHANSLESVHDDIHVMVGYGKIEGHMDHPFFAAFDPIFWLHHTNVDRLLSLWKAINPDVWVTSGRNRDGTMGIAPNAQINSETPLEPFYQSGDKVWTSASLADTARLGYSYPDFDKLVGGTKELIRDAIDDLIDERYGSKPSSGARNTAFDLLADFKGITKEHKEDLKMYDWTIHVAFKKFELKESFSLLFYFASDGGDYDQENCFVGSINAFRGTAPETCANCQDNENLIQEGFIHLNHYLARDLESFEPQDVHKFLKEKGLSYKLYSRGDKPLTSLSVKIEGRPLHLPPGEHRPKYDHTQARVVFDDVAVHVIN

L929 = experiment: Cytotoxicity against mouse L929 cells assessed as decrease in cell viability after 24 hrs by MTT assay; assay type: cell-based; conditions: l929, 24 h
HaCaT = experiment: Cytotoxicity against human HaCaT cells assessed as decrease in cell viability after 24 hrs by MTT assay; assay type: cell-based
Tyrosinase [2] = molecular target: T1, Tyrosinase; remark: listed apart in the source
Tyrosinase [3] = molecular target: T1, Tyrosinase; remark: listed apart in the source
[4] = molecular target: T2, Tyrosinase (Agaricus bisporus) (UniProt O42713); conditions: 8.75 to 140 uM
T2 sequence (whole entry): T1 sequence (O42713 whole entry)

[5] = molecular target: T2, Tyrosinase (Agaricus bisporus); experiment: Reversible inhibition of mushroom tyrosinase using L-DOPA as substrate at 10.6 to 342 uM
[6] = compound: COc1cc(C=O)ccc1OC(=O)CN1CCN(C)CC1; experiment: Non competitive inhibition of mushroom tyrosinase using L-DOPA as substrate assessed as enzyme Vmax at 10.68 uM preincubated for 10 mins followed by substrate addition measured after 20 mins by Lineweaver-Burk plot analysis (reference value: […] x 10^-4 to 2.66 x 10^-4 deltaA/s); conditions: Agaricus bisporus
[7] = compound: COc1cc(C=O)ccc1OC(=O)CN1CCN(C)CC1; experiment: Non competitive inhibition of mushroom tyrosinase using L-DOPA as substrate assessed as enzyme Vmax at 21.37 uM preincubated for 10 mins followed by substrate addition measured after 20 mins by Lineweaver-Burk plot analysis (reference value: […] x 10^-4 to 2.66 x 10^-4 deltaA/s); conditions: Agaricus bisporus
[8] = compound: COc1cc(C=O)ccc1OC(=O)CN1CCN(C)CC1; experiment: Non competitive inhibition of mushroom tyrosinase using L-DOPA as substrate assessed as enzyme Vmax at 42.75 uM preincubated for 10 mins followed by substrate addition measured after 20 mins by Lineweaver-Burk plot analysis (reference value: […] x 10^-4 to 2.66 x 10^-4 deltaA/s); conditions: Agaricus bisporus
[9] = compound: COc1cc(C=O)ccc1OC(=O)CN1CCN(C)CC1; experiment: Non competitive inhibition of mushroom tyrosinase using L-DOPA as substrate assessed as enzyme Vmax at 85.5 uM preincubated for 10 mins followed by substrate addition measured after 20 mins by Lineweaver-Burk plot analysis (reference value: […] x 10^-4 to 2.66 x 10^-4 deltaA/s); conditions: Agaricus bisporus
[10] = compound: COc1cc(C=O)ccc1OC(=O)CN1CCN(C)CC1; experiment: Non competitive inhibition of mushroom tyrosinase using L-DOPA as substrate assessed as enzyme Vmax at 342 uM preincubated for 10 mins followed by substrate addition measured after 20 mins by Lineweaver-Burk plot analysis (reference value: […] x 10^-4 to 2.66 x 10^-4 deltaA/s); conditions: Agaricus bisporus
[11] = compound: COc1cc(C=O)ccc1OC(=O)CN1CCN(C)CC1; experiment: Non competitive inhibition of mushroom tyrosinase using L-DOPA as substrate assessed as enzyme Km at 10.68 uM preincubated for 10 mins followed by substrate addition measured after 20 mins by Lineweaver-Burk plot analysis (reference value: […] to […] mM); conditions: Agaricus bisporus
[12] = compound: COc1cc(C=O)ccc1OC(=O)CN1CCN(C)CC1; experiment: Non competitive inhibition of mushroom tyrosinase using L-DOPA as substrate assessed as enzyme Km at 21.37 uM preincubated for 10 mins followed by substrate addition measured after 20 mins by Lineweaver-Burk plot analysis (reference value: […] to […] mM); conditions: Agaricus bisporus
[13] = compound: COc1cc(C=O)ccc1OC(=O)CN1CCN(C)CC1; experiment: Non competitive inhibition of mushroom tyrosinase using L-DOPA as substrate assessed as enzyme Km at 42.75 uM preincubated for 10 mins followed by substrate addition measured after 20 mins by Lineweaver-Burk plot analysis (reference value: […] to […] mM); conditions: Agaricus bisporus
[14] = compound: COc1cc(C=O)ccc1OC(=O)CN1CCN(C)CC1; experiment: Non competitive inhibition of mushroom tyrosinase using L-DOPA as substrate assessed as enzyme Km at 85.5 uM preincubated for 10 mins followed by substrate addition measured after 20 mins by Lineweaver-Burk plot analysis (reference value: […] to […] mM); conditions: Agaricus bisporus
[15] = compound: COc1cc(C=O)ccc1OC(=O)CN1CCN(C)CC1; experiment: Non competitive inhibition of mushroom tyrosinase using L-DOPA as substrate assessed as enzyme Km at 342 uM preincubated for 10 mins followed by substrate addition measured after 20 mins by Lineweaver-Burk plot analysis (reference value: […] to […] mM); conditions: Agaricus bisporus
[16] = substrate: COc1cc(C=O)ccc1OC(=O)COC(=O)/C=C/c1ccc(O)cc1; conditions: Agaricus bisporus; 17.5 uM
[17] = substrate: COc1cc(C=O)ccc1OC(=O)COC(=O)/C=C/c1ccc(Cl)cc1; conditions: Agaricus bisporus; 8.3 uM
[18] = substrate: COc1cc(C=O)ccc1OC(=O)COC(=O)/C=C/c1ccc(Cl)cc1; conditions: Agaricus bisporus; 16.6 uM
[19] = substrate: COc1cc(C=O)ccc1OC(=O)COC(=O)/C=C/c1ccc(Cl)cc1; conditions: Agaricus bisporus; 33.3 uM
[20] = substrate: COc1cc(C=O)ccc1OC(=O)COC(=O)c1ccc(O)cc1O; conditions: Agaricus bisporus; 72.2 uM
[21] = substrate: COc1cc(C=O)ccc1OC(=O)COC(=O)c1ccc(O)cc1O; conditions: Agaricus bisporus; 144.5 uM
[22] = substrate: COc1cc(C=O)ccc1OC(=O)COC(=O)c1ccc(O)cc1O; conditions: Agaricus bisporus; 289 uM
[23] = substrate: COc1cc(C=O)ccc1OC(=O)COC(=O)/C=C/c1ccc(O)cc1; conditions: Agaricus bisporus; 8.75 uM
[24] = substrate: COc1cc(C=O)ccc1OC(=O)COC(=O)/C=C/c1ccc(O)cc1; conditions: Agaricus bisporus; 17.5 uM; remark: listed apart in the source
[25] = substrate: COc1cc(C=O)ccc1OC(=O)COC(=O)/C=C/c1ccc(Cl)cc1; conditions: Agaricus bisporus; 8.3 uM; remark: listed apart in the source
[26] = substrate: COc1cc(C=O)ccc1OC(=O)COC(=O)/C=C/c1ccc(Cl)cc1; conditions: Agaricus bisporus; 16.6 uM; remark: listed apart in the source
[27] = substrate: COc1cc(C=O)ccc1OC(=O)COC(=O)c1ccc(O)cc1O; conditions: Agaricus bisporus; 72.2 uM; remark: listed apart in the source
[28] = substrate: COc1cc(C=O)ccc1OC(=O)COC(=O)c1ccc(O)cc1O; conditions: Agaricus bisporus; 144.5 uM; remark: listed apart in the source
[29] = substrate: COc1cc(C=O)ccc1OC(=O)COC(=O)c1ccc(O)cc1O; conditions: Agaricus bisporus; 289 uM; remark: listed apart in the source
[30] = substrate: COc1cc(C=O)ccc1OC(=O)COC(=O)/C=C/c1ccc(O)cc1; conditions: Agaricus bisporus; 8.75 uM; remark: listed apart in the source

Molecule: COc1cc(C=O)ccc1OC(=O)CCl
IC50 (Tyrosinase [1]): 78.9 µM

Molecule: COc1cc(C=O)ccc1OC(=O)CN1CCN(C)CC1
inhibition [5]: Active | Ki (Tyrosinase [2]): 60 µM | IC50 (Tyrosinase [1]): 21.6 µM

Molecule: COc1cc(C=O)ccc1OC(=O)COC(=O)c1ccc(O)cc1O
Ki (Tyrosinase [2]): 65 µM | Ki (Tyrosinase [3]): 205 µM | IC50 (Tyrosinase [1]): 42.6 µM

Molecule: COc1cc(C=O)ccc1OC(=O)COC(=O)c1cc(O)cc(O)c1
IC50 (Tyrosinase [1]): 59.8 µM

Molecule: COc1cc(C=O)ccc1OC(=O)CN1CCN(c2ccccc2)CC1
IC50 (Tyrosinase [1]): 101 µM

Molecule: COc1cc(C=O)ccc1OC(=O)COC(=O)/C=C/c1ccc(Cl)cc1
Ki (Tyrosinase [2]): 41 µM | Ki (Tyrosinase [3]): 100 µM | IC50 (Tyrosinase [1]): 30.9 µM

B1: Tyrosinase (Agaricus bisporus), O42713 (protein)
chain: T1 sequence (O42713 whole entry)
Vmax (10'-4deltaA/s) [6]: 1.66 | Vmax (10'-4deltaA/s) [7]: 1.42 | Vmax (10'-4deltaA/s) [8]: 1.17 | Vmax (10'-5deltaA/s) [9]: 7.14 | Vmax (10'-5deltaA/s) [10]: 2.85 | Km [11]: 400 µM | Km [12]: 400 µM | Km [13]: 400 µM | Km [14]: 400 µM | Km [15]: 400 µM | Vmax (10'-4deltaA/s) [16]: 2 | Vmax (10'-4deltaA/s) [17]: 2.22 | Vmax (10'-4deltaA/s) [18]: 1.96 | Vmax (10'-4deltaA/s) [19]: 1.85 | Km [20]: 830 µM | Km [21]: 1000 µM | Km [22]: 1250 µM | Km [23]: 1330 µM | Km [24]: 1530 µM | Km [25]: 900 µM | Km [26]: 1000 µM | Vmax (10'-4deltaA/s) [27]: 2 | Vmax (10'-4deltaA/s) [28]: 1.53 | Vmax (10'-4deltaA/s) [29]: 1.05 | Vmax (10'-4deltaA/s) [30]: 2.22

The next lines start with results.

Ki (Tyrosinase [2]): 13 µM | Ki (Tyrosinase [3]): 53 µM | IC50 (Tyrosinase [1]): 16.1 µM | inhibition [4]: Active
Molecule: COc1cc(C=O)ccc1OC(=O)COC(=O)/C=C/c1ccc(O)cc1
Activity (L929): Dose-dependent effect | Activity (HaCaT): Dose-dependent effect

IC50 (Tyrosinase [1]): 201 µM
Molecule: COc1cc(C=O)ccc1OC(=O)COC(=O)c1ccc(O)cc1

IC50 (Tyrosinase [1]): 157 µM
Molecule: COc1cc(C=O)ccc1OC(=O)COC(=O)c1ccc(O)c(O)c1
